Experimental data as given in publication PMC10149743, “Structural studies of the nucleus-like assembly of jumbo bacteriophage 201φ2-1” (Frontiers in Microbiology, 2023).

B1: nucleus-like shell protein gp105 of bacteriophage 201φ2-1, wild type, C-terminal His6 (natural protein, Pseudomonas phage 201phi2-1, UniProt B3FIW8 1-631, looked up)
chain: MIRDTATNTTQTQAAPQQAPAQQFTQAPQEKPMQSTQSQPTPSYAGTGGINSQFTRSGNVQGGDARASEALTVFTRLKEQAVAQQDLADDFSILRFDRDQHQVGWSSLVIAKQISLNGQPVIAVRPLILPNNSIELPKRKTNIVNGMQTDVIESDIDVGTVFSAQYFNRLSTYVQNTLGKPGAKVVLAGPFPIPADLVLKDSELQLRNLLIKSVNACDDILALHSGERPFTIAGLKGQQGETLAAKVDIRTQPLHDTVGNPIRADIVVTTQRVRRNGQQENEFYETDVKLNQVAMFTNLERTPQAQAQTLFPNQQQVATPAPWVASVVITDVRNADGIQANTPEMYWFALSNAFRSTHGHAWARPFLPMTGVAKDMKDIGALGWMSALRNRIDTKAANFDDAQFGQLMLSQVQPNPVFQIDLNRMGETAQMDSLQLDAAGGPNAQKAAATIIRQINNLGGGGFERFFDHTTQPILERTGQVIDLGNWFDGDEKRDRRDLDNLAALNAAEGNENEFWGFYGAQLNPNLHPDLRNRQSRNYDRQYLGSTVTYTGKAERCTYNAKFIEALDRYLAEAGLQITMDNTSVLNSGQRFMGNSVIGNNMVSGQAQVHSAYAGTQGFNTQYQTGPSSFY
notes: gp105 (nucleus-like shell protein, chimallin) of Pseudomonas phage 201phi2-1, GenBank ABY62937; 631 amino acids; synthesised codon-optimised gene in pET28a; residues 1-48 and 583-631 are named as present but not built in the model; Occurs as monomer, 24-mer cube-like particle and large sheet-like assemblies; also called NLSP; source: E. coli BL21 (DE3) pLysS, purified (cobalt resin, Superose 6 …)
B2: gp105Δ(NTS 1–17, CTS 609–631) (domain or fragment, Pseudomonas phage 201phi2-1, UniProt B3FIW8 18-608, looked up)
chain: QAPAQQFTQAPQEKPMQSTQSQPTPSYAGTGGINSQFTRSGNVQGGDARASEALTVFTRLKEQAVAQQDLADDFSILRFDRDQHQVGWSSLVIAKQISLNGQPVIAVRPLILPNNSIELPKRKTNIVNGMQTDVIESDIDVGTVFSAQYFNRLSTYVQNTLGKPGAKVVLAGPFPIPADLVLKDSELQLRNLLIKSVNACDDILALHSGERPFTIAGLKGQQGETLAAKVDIRTQPLHDTVGNPIRADIVVTTQRVRRNGQQENEFYETDVKLNQVAMFTNLERTPQAQAQTLFPNQQQVATPAPWVASVVITDVRNADGIQANTPEMYWFALSNAFRSTHGHAWARPFLPMTGVAKDMKDIGALGWMSALRNRIDTKAANFDDAQFGQLMLSQVQPNPVFQIDLNRMGETAQMDSLQLDAAGGPNAQKAAATIIRQINNLGGGGFERFFDHTTQPILERTGQVIDLGNWFDGDEKRDRRDLDNLAALNAAEGNENEFWGFYGAQLNPNLHPDLRNRQSRNYDRQYLGSTVTYTGKAERCTYNAKFIEALDRYLAEAGLQITMDNTSVLNSGQRFMGNSVIGNNMVSGQAQ
notes: gp105 of Pseudomonas phage 201phi2-1, GenBank ABY62937, residues 1-17 and 609-631 removed; Truncation made by PCR and In-Fusion cloning into pET28a; source: E. coli BL21 (DE3) pLysS, purified using the same method as for the wild type gp105
B3: gp105Δ(NTS 1–17) (domain or fragment, Pseudomonas phage 201phi2-1, UniProt B3FIW8 18-631, looked up)
chain: QAPAQQFTQAPQEKPMQSTQSQPTPSYAGTGGINSQFTRSGNVQGGDARASEALTVFTRLKEQAVAQQDLADDFSILRFDRDQHQVGWSSLVIAKQISLNGQPVIAVRPLILPNNSIELPKRKTNIVNGMQTDVIESDIDVGTVFSAQYFNRLSTYVQNTLGKPGAKVVLAGPFPIPADLVLKDSELQLRNLLIKSVNACDDILALHSGERPFTIAGLKGQQGETLAAKVDIRTQPLHDTVGNPIRADIVVTTQRVRRNGQQENEFYETDVKLNQVAMFTNLERTPQAQAQTLFPNQQQVATPAPWVASVVITDVRNADGIQANTPEMYWFALSNAFRSTHGHAWARPFLPMTGVAKDMKDIGALGWMSALRNRIDTKAANFDDAQFGQLMLSQVQPNPVFQIDLNRMGETAQMDSLQLDAAGGPNAQKAAATIIRQINNLGGGGFERFFDHTTQPILERTGQVIDLGNWFDGDEKRDRRDLDNLAALNAAEGNENEFWGFYGAQLNPNLHPDLRNRQSRNYDRQYLGSTVTYTGKAERCTYNAKFIEALDRYLAEAGLQITMDNTSVLNSGQRFMGNSVIGNNMVSGQAQVHSAYAGTQGFNTQYQTGPSSFY
notes: gp105 of Pseudomonas phage 201phi2-1, GenBank ABY62937, residues 1-17 removed; Truncation made by PCR and In-Fusion cloning into pET28a; source: E. coli BL21 (DE3) pLysS, purified using the same method as for the wild type gp105
B4: gp105Δ(NTS 1–60) (domain or fragment, Pseudomonas phage 201phi2-1, UniProt B3FIW8 61-631, looked up)
chain: QGGDARASEALTVFTRLKEQAVAQQDLADDFSILRFDRDQHQVGWSSLVIAKQISLNGQPVIAVRPLILPNNSIELPKRKTNIVNGMQTDVIESDIDVGTVFSAQYFNRLSTYVQNTLGKPGAKVVLAGPFPIPADLVLKDSELQLRNLLIKSVNACDDILALHSGERPFTIAGLKGQQGETLAAKVDIRTQPLHDTVGNPIRADIVVTTQRVRRNGQQENEFYETDVKLNQVAMFTNLERTPQAQAQTLFPNQQQVATPAPWVASVVITDVRNADGIQANTPEMYWFALSNAFRSTHGHAWARPFLPMTGVAKDMKDIGALGWMSALRNRIDTKAANFDDAQFGQLMLSQVQPNPVFQIDLNRMGETAQMDSLQLDAAGGPNAQKAAATIIRQINNLGGGGFERFFDHTTQPILERTGQVIDLGNWFDGDEKRDRRDLDNLAALNAAEGNENEFWGFYGAQLNPNLHPDLRNRQSRNYDRQYLGSTVTYTGKAERCTYNAKFIEALDRYLAEAGLQITMDNTSVLNSGQRFMGNSVIGNNMVSGQAQVHSAYAGTQGFNTQYQTGPSSFY
notes: gp105 of Pseudomonas phage 201phi2-1, GenBank ABY62937, residues 1-60 removed; Truncation made by PCR and In-Fusion cloning into pET28a; source: E. coli BL21 (DE3) pLysS, purified using the same method as for the wild type gp105
B5: gp105Δ(loop 279–285) (natural protein, Pseudomonas phage 201phi2-1, UniProt B3FIW8 1-631, looked up)
chain: MIRDTATNTTQTQAAPQQAPAQQFTQAPQEKPMQSTQSQPTPSYAGTGGINSQFTRSGNVQGGDARASEALTVFTRLKEQAVAQQDLADDFSILRFDRDQHQVGWSSLVIAKQISLNGQPVIAVRPLILPNNSIELPKRKTNIVNGMQTDVIESDIDVGTVFSAQYFNRLSTYVQNTLGKPGAKVVLAGPFPIPADLVLKDSELQLRNLLIKSVNACDDILALHSGERPFTIAGLKGQQGETLAAKVDIRTQPLHDTVGNPIRADIVVTTQRVRRNGQTDVKLNQVAMFTNLERTPQAQAQTLFPNQQQVATPAPWVASVVITDVRNADGIQANTPEMYWFALSNAFRSTHGHAWARPFLPMTGVAKDMKDIGALGWMSALRNRIDTKAANFDDAQFGQLMLSQVQPNPVFQIDLNRMGETAQMDSLQLDAAGGPNAQKAAATIIRQINNLGGGGFERFFDHTTQPILERTGQVIDLGNWFDGDEKRDRRDLDNLAALNAAEGNENEFWGFYGAQLNPNLHPDLRNRQSRNYDRQYLGSTVTYTGKAERCTYNAKFIEALDRYLAEAGLQITMDNTSVLNSGQRFMGNSVIGNNMVSGQAQVHSAYAGTQGFNTQYQTGPSSFY
notes: gp105 of Pseudomonas phage 201phi2-1, GenBank ABY62937, loop residues 279-285 deleted; source: E. coli BL21 (DE3) pLysS, purified using the same method as for the wild type gp105

Key:
[1] = target: the molecule itself; test: cryo-EM structure; cube-like particles from the 11.4 ml SEC peak; reconstruction with O symmetry (4.76 Å) and without symmetry (6.41 Å)
[2] = target: the molecule itself; test: SEC; truncation mutants of gp105, purified as the wild type, Superose 6 Increase 10/300 GL in buffer B (20 mM HEPES pH 7.5, 150 mM NaCl); self-association

Protein	stoichiometry N [1]	binding result [2]
B1	24	–
B2	–	binds
B3	–	binds
B4	–	binds
B5	–	binds
